Experimental data taken from publication PMC12442453 (2025).

Target: T1, human EPOR ectodomain (ECD) fused to a human Fc domain (EPOR-Fc) (human, UniProt P19235 25-250)
T1 chain: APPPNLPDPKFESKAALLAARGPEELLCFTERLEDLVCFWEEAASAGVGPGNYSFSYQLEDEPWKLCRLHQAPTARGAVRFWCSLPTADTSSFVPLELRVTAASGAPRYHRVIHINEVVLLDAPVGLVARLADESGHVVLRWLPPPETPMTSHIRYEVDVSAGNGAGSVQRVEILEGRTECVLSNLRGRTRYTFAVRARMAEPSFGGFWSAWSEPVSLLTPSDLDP
Assay: ELISA

EC50: 0.9 nM
B1: Db-Fc 1.1 (Fc fusion)
chain 1: EVQLVESGGGLVQPGGSLRLSCAASGFNLRSYYMHWVRQAPGKGLEWVASISPYYSYTYYADSVKGRFTISADTSKNTAYLQMNSLRAEDTAVYYCARHGYGAMDYWGQGTLVTVSS
chain 2: DIQMTQSPSSLSASVGDRVTITCRASQSVSSAVAWYQQKPGKAPKLLIYSASSLYSGVPSRFSGSRSGTDFTLTISSLQPEDFATYYCQQSSYSLITFGQGTKVEIK
